Experimental data from US20140186363A1 (UNIVERSITY OF ZURICH, published 2014).

Legend:
[1] = target: T1, MAGEA3 peptide no 6; assay: peptide ELISA (coated 20mer) [Figure 1]
T1 construct: also called MAGEA3 aa 51-70
T1 peptide: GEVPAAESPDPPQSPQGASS
Description: (§1) 20mer peptides spanning the entire MAGEA3 protein with 10 aa overlaps shared by each adjacent peptide (Peptides&Elephants, Nuthetal, Germany) were used to coat Maxisorp ELISA plates (Nunc, Rochester, N.Y.). As control a 20mer peptide representing amino acids 40-21 from the NY-ESO-1 protein was used (rev). The numbering of amino acids of MAGEA3 is based on SEQ ID No:41.
(§2) Human recombinant antibody was used at a concentration of 1 μg/ml. Bound human antibody was detected using horseradish peroxidase-conjugated goat anti-human IgG Fc-gamma specific antibodies (Jackson ImmunoResearch, Europe Ltd., Cambridgeshire, UK).

[2] = target: T2, MAGEA3 peptide no 5; assay: peptide ELISA (coated 20mer) [Figure 1]
T2 construct: also called MAGEA3 aa 41-60
T2 peptide: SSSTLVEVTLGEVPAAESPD
Description: as §1, §2

[3] = target: T3, MAGEA3 peptide no 18; assay: peptide ELISA (coated 20mer)
T3 construct: also called MAGEA3 aa 171-190
T3 peptide: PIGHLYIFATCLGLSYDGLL
Description: as §1, §2

[4] = target: T4, MAGEA3 peptide no 17; assay: peptide ELISA (coated 20mer)
T4 construct: also called MAGEA3 aa 161-180
T4 peptide: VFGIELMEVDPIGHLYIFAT
Description: as §1, §2

[5] = target: T5, MAGEA3 peptide no 11; assay: peptide ELISA (coated 20mer)
T5 construct: also called MAGEA3 aa 101-120
T5 peptide: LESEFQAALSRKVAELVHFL
Description: as §1, §2

[6] = target: T6, MAGEA3 peptide no 7; assay: peptide ELISA (coated 20mer)
T6 construct: also called MAGEA3 aa 61-80
T6 peptide: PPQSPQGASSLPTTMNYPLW
Description: as §1, §2

[7] = target: T1, MAGEA3 peptide no 6; assay: peptide ELISA (coated 20mer)
Description: as §1, §2

[8] = target: T7, MAGEA3 peptide no 23; assay: peptide ELISA (coated 20mer)
T7 construct: also called MAGEA3 aa 221-240
T7 peptide: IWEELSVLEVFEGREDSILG
Description: as §1, §2

[9] = target: T8, MAGEA3 peptide no 30; assay: peptide ELISA (coated 20mer)
T8 construct: also called MAGEA3 aa 291-310
T8 peptide: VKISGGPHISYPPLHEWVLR
Description: as §1, §2

[10] = target: T9, MAGEA3 peptide no 1; assay: peptide ELISA (coated 20mer)
T9 construct: also called MAGEA3 aa 1-20
T9 peptide: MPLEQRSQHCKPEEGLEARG
Description: as §1, §2

[11] = target: T10, MAGEA3 peptide no 20; assay: peptide ELISA (coated 20mer)
T10 construct: also called MAGEA3 aa 191-210
T10 peptide: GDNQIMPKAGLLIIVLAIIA
Description: as §1, §2

[12] = target: T11, MAGEA3 peptide no 26; assay: peptide ELISA (coated 20mer)
T11 construct: also called MAGEA3 aa 251-270
T11 peptide: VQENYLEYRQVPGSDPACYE
Description: as §1, §2

[13] = target: T12, MAGEA3 peptide no 29; assay: peptide ELISA (coated 20mer)
T12 construct: also called MAGEA3 aa 281-300
T12 peptide: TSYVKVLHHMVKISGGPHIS
Description: as §1, §2

[14] = target: T13, MAGEA3 peptide no 16; assay: peptide ELISA (coated 20mer)
T13 construct: also called MAGEA3 aa 151-170
T13 peptide: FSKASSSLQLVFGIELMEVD
Description: as §1, §2

[15] = target: T14, MAGEA3 peptide no 2; assay: peptide ELISA (coated 20mer)
T14 construct: also called MAGEA3 aa 11-30
T14 peptide: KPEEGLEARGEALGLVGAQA
Description: as §1, §2

[16] = target: T15, MAGEA3 peptide no 14; assay: peptide ELISA (coated 20mer)
T15 construct: also called MAGEA3 aa 131-150
T15 peptide: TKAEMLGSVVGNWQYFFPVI
Description: as §1, §2

[17] = target: T16, MAGEA3 peptide no 9; assay: peptide ELISA (coated 20mer)
T16 construct: also called MAGEA3 aa 81-100
T16 peptide: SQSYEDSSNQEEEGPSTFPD
Description: as §1, §2

Measured: binding result

B1: 102G10 (antibody, V domains shown)
VH: EVQLVESGGGLVKPGGSLRLSCAASGFTFSGNSMNWVRQAPGKGLEWVSSISSSSGYIYYADSVKGRFTVSRDNAKNSLYLQMNSLRAEDTAVYYCATWPVTTARVGYWGQGTLVTVSS
VL: QSVLTQPPSASGTPGQRVTISCSGSSSNIGSNYVYWHQQLPGTAPKLLIYRHDQRPSGVPDRFSGSKSGTSASLAISGLRSEDEADYYCAAWDDSLSAWVFGGGTKLTVL
notes: Patient-derived human antibody made recombinantly; also called human monoclonal antibody 102G10
no binding (tested: 1 µg/ml): [1]

B2: 34G9 (antibody, V domains shown)
VH: EVQLEESGGDLVQPGGSLRLSCAASGFTFSHYWMHWVRQAPGKGLVWVSRINSDGSSTSYADSVKGRFTISRDNAKNTLYLQMNSLRAEDTAVYYCARIGSDGYNYDFWGQGTLVTVSS
VL: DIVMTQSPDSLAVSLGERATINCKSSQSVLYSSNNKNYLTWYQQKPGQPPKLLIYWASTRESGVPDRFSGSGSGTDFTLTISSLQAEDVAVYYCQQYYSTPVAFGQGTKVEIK
notes: Patient-derived human antibody made recombinantly; also called human monoclonal antibody 34G9
no binding (tested: 1 µg/ml): [2]

B3: 32H2 (antibody, V domains shown)
VH: QVQLVESGGGVVQPGRSLRLSCAASGFTFSSNAMHWVRQAPGKGLEWVAVISHDGSNKYYADSVKGRFTISRDNSKNTLYLQMNSLRAEDTAVYYCARDGSGSYFNLDYWGQGTLVTVSS
VL: QSALTQPASVSGSPGQSITISCTGTSSDVGGYNYVSWYQQHPGKAPKLMIYEVSNRPSGVSNRFSGSKSGNTASLTISGLQAEDEADYYCSSYTSSSTLVFGTGTKVTVL
notes: Patient-derived human antibody made recombinantly; also called human monoclonal antibody 32H2
not listed: [1] | [2]
no binding (tested: 1 µg/ml): all other assays above
